The values below come from the RNAGym collection of RNA variant scans (doi:10.1093/nar/gkz1192).

B1: CPEB3 Ribozyme (parent)
chain: UAACAGGGGGCCACAGCAGAAGCGUUCACGUCGCAGCCCCUGUCAGAUUCUGGUGAAUCUGCGAAUUCUGCUGUAUAUCUC

In the data set the parent is B1. The data set can be described thus: self-cleavage, relative activity (ratio to wild type); higher = more cleavage; in vitro, sequencing. Summed up:
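Relative activity compares each variant's cleaved/total read fraction with that of the unmutated ribozyme. To get these fractions, barcoded CPEB3 ribozyme libraries from rounds of error-prone PCR were transcribed with T7 RNA polymerase for 5 hours at 37°C and then given 15 min of DNase I treatment before EDTA was added. The RNAs were reverse transcribed with template switching and sequenced on Illumina, and DNA sequencing linked barcodes to variants. A minimum of 5 reads applied, and three batches were averaged.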
With A56C A64U, the self-cleavage stood at 0.18.

For G63A U72A, the self-cleavage came out at 0.59.

Regarding U72A C79U, the self-cleavage was 0.68.

For C23U A57U, the self-cleavage stood at 0.19.

For the variant C23A U67A, the self-cleavage was found to be 0.16.

In the case of A45G G73A, the self-cleavage stood at 1.16.

For U60C U66A, the self-cleavage worked out at 0.33.

As for A35G A64U, the self-cleavage came out at 1.12.

For G36U U78A, the self-cleavage was 0.43.

For C71U U76C, the self-cleavage was found to be 0.84.

On to G10C C11A, for which the self-cleavage came to 0.33.

As to G7C U69C, the self-cleavage turned out to be 0.2.

On to U1C U49C, for which the self-cleavage was 0.37.

Consider G36C C38U, for which the self-cleavage came to 0.27.

For the variant G16A U74C, the self-cleavage was found to be 0.77.

As to C23U A77U, the self-cleavage worked out at 0.23.

G9U C12U: the self-cleavage was 0.2.

As to A28C U41A, the self-cleavage came out at 0.2.

As for G8U U41A, the self-cleavage was 0.19.

On to A3G A75C, for which the self-cleavage came out at 1.07.

For G63A, the self-cleavage turned out to be 0.87.

In the case of G53U A65G, the self-cleavage was 0.61.

As to C11U U74C, the self-cleavage is 0.83.

With C27G U69C, the self-cleavage worked out at 0.24.

Take A35U C71U: the self-cleavage was 0.37.

For U1A A56U, the self-cleavage was 0.61.

For the variant U58C U60G, the self-cleavage was 0.24.

Take G16A U43A: the self-cleavage came out at 0.74.

On to G30C U41C, for which the self-cleavage turned out to be 0.28.

Take U25C C59A: the self-cleavage turned out to be 0.16.

Take U1C A56G: the self-cleavage is 0.73.

As for C4U A20G, the self-cleavage was 0.81.

On to C40G U78C, for which the self-cleavage was found to be 0.38.

As for U26A U49G, the self-cleavage worked out at 0.41.

In the case of A3U G22A, the self-cleavage stood at 0.45.

Take A3U G22U: the self-cleavage amounted to 0.32.

For the variant G30A G70A, the self-cleavage amounted to 0.39.

For A18G A35G, the self-cleavage was 1.06.

Take G46A U69C: the self-cleavage turned out to be 0.07.

In the case of U1C G52A, the self-cleavage is 1.

Regarding G30U U78C, the self-cleavage turned out to be 0.09.

Regarding A20G U26G, the self-cleavage was 0.36.

In the case of A21U G42C, the self-cleavage was determined as 0.29.

With G10A A21G, the self-cleavage is 0.24.

Take A13G U54A: the self-cleavage amounted to 1.07.

On to A18U G61U, for which the self-cleavage was determined as 0.28.

With U48G A65G, the self-cleavage turned out to be 0.23.

For the variant C17U U80C, the self-cleavage was 0.85.

As for U1A U51C, the self-cleavage turned out to be 0.92.

Regarding G10U U67C, the self-cleavage amounted to 0.12.

Take U72A U76G: the self-cleavage was found to be 0.54.

On to A47C A64U, for which the self-cleavage was determined as 0.45.

For G8U A56U, the self-cleavage is 0.14.

Take A45C U69A: the self-cleavage came out at 0.14.

Regarding A5G G53A, the self-cleavage stood at 0.88.

Turning to A5G G19C, the self-cleavage is 0.41.

With C34U U76C, the self-cleavage came to 0.35.

As to C29A U66C, the self-cleavage was determined as 0.29.

U31A G46C: the self-cleavage is 0.2.

For C11U C12U, the self-cleavage came to 0.56.

On to G61A U72A, for which the self-cleavage was found to be 0.3.

Regarding C34G U80C, the self-cleavage stood at 0.24.

For A15U A45U, the self-cleavage was found to be 0.33.

Consider U25G U54A, for which the self-cleavage was 0.49.

Turning to G6C U25A, the self-cleavage came to 0.5.

Regarding U31A C62A, the self-cleavage worked out at 0.28.

With U1C C29A, the self-cleavage was 0.32.

Take U31C U51G: the self-cleavage amounted to 0.89.

G33U G46A: the self-cleavage turned out to be 0.44.

Turning to U48G A64G, the self-cleavage was determined as 0.45.

Turning to A13G A21G, the self-cleavage came to 0.5.

As to A2G G61A, the self-cleavage is 0.31.

Turning to A2G G9A, the self-cleavage is 0.28.

As to U31A U74G, the self-cleavage is 0.84.

As for A35G C81A, the self-cleavage came out at 1.3.

On to G24A U51G, for which the self-cleavage was 0.11.

For the variant A28U U72G, the self-cleavage worked out at 0.89.

On to C29U U54A, for which the self-cleavage was 0.54.

As to G61A U66C, the self-cleavage came out at 0.39.

U31C C37A: the self-cleavage is 0.28.

For G16A U60C, the self-cleavage is 0.19.

Consider G63C U76C, for which the self-cleavage is 1.03.

With U43G A75U, the self-cleavage turned out to be 0.35.

As for C4U A75G, the self-cleavage was found to be 1.15.

Consider A35U U74C, for which the self-cleavage was 0.86.

For U43G A77G, the self-cleavage turned out to be 0.22.

Turning to A21U U78A, the self-cleavage came to 0.38.

Regarding C23G U51G, the self-cleavage is 0.5.

A20G U58G: the self-cleavage is 0.11.

For U25C G61C, the self-cleavage worked out at 0.15.

Take C23A U43A: the self-cleavage was determined as 0.28.

Consider C40G U41A, for which the self-cleavage is 0.26.

As to A2G U54G, the self-cleavage is 0.51.

With U66A U76C, the self-cleavage amounted to 0.57.

With C17G U26A, the self-cleavage amounted to 0.29.

For the variant A21G U66G, the self-cleavage worked out at 0.44.

As to A5G G73C, the self-cleavage worked out at 1.25.

A18C U78C: the self-cleavage turned out to be 0.4.

Turning to A18G U69G, the self-cleavage was 0.49.

On to U1A U78C, for which the self-cleavage was found to be 0.91.

Take C11G U69C: the self-cleavage came to 0.25.

Regarding C27U A65G, the self-cleavage came to 0.24.

Consider G7U A56G, for which the self-cleavage worked out at 0.23.

In the case of G8U C79U, the self-cleavage turned out to be 0.04.

Consider G16A U78A, for which the self-cleavage worked out at 0.52.

As for C11U G33C, the self-cleavage was 0.14.

In the case of A5U A35C, the self-cleavage was 1.2.

As for G30C C62U, the self-cleavage came to 0.06.

For the variant A5C U48C, the self-cleavage amounted to 0.94.

For C34G G42A, the self-cleavage stood at 0.62.

For A2G A45G, the self-cleavage was 0.45.

As for A56G U80A, the self-cleavage came out at 0.92.

In the case of A20U C27A, the self-cleavage came out at 0.27.

As for G8U G46U, the self-cleavage came out at 0.19.

For U41A G46U, the self-cleavage came to 0.29.

For the variant U41A G46A, the self-cleavage amounted to 0.3.

Regarding G24C A77G, the self-cleavage worked out at 0.3.

Take C23A U25C: the self-cleavage was 0.36.

Consider G24A C44U, for which the self-cleavage was determined as 0.18.

With G61A A65G, the self-cleavage was found to be 0.39.

A13U G42A: the self-cleavage came to 0.19.

For U43C G46C, the self-cleavage was 0.16.

Turning to G7C A64G, the self-cleavage came to 0.35.

For the variant C39U U60A, the self-cleavage came to 0.43.

Regarding U25G C39U, the self-cleavage is 0.3.

Regarding C4A U41A, the self-cleavage was determined as 0.41.

Take G30A U76A: the self-cleavage came out at 0.13.

As for A5U A13U, the self-cleavage is 1.16.

Take A5U A13C: the self-cleavage amounted to 1.15.

As for G7C A13G, the self-cleavage was 0.32.

For U31A A77G, the self-cleavage was 0.32.

For C40U U54G, the self-cleavage was determined as 0.6.

In the case of U26A U54C, the self-cleavage was 0.84.

Take G9A G24A: the self-cleavage stood at 0.22.

In the case of G16C U51A, the self-cleavage was determined as 0.11.

With G33A U67A, the self-cleavage worked out at 0.15.

With C71U U80A, the self-cleavage came to 0.72.

G9A A45G: the self-cleavage worked out at 0.39.

Consider C50A U69C, for which the self-cleavage is 0.49.

On to A28C U69G, for which the self-cleavage came out at 0.2.

Take U41G U58G: the self-cleavage stood at 0.16.

Regarding A35U A65G, the self-cleavage is 0.26.

G63A U78A: the self-cleavage is 0.93.

As for A2U C37A, the self-cleavage amounted to 0.16.

C29U A56C: the self-cleavage came to 0.42.

On to A45C G63C, for which the self-cleavage worked out at 0.52.

A3U A45G: the self-cleavage amounted to 1.03.

Consider G42A A56U, for which the self-cleavage came out at 0.28.

On to G33A C40A, for which the self-cleavage amounted to 0.19.

In the case of U49G G55U, the self-cleavage is 0.88.

Take G6C A21U: the self-cleavage is 0.39.

As for C17A A20G, the self-cleavage is 0.3.

In the case of G36A A65G, the self-cleavage is 0.17.

With U25A G73A, the self-cleavage amounted to 0.36.

Consider A35G U78A, for which the self-cleavage worked out at 1.35.

Take A21C C71A: the self-cleavage came out at 0.09.

Consider G10U A20G, for which the self-cleavage came out at 0.36.

Consider U25A A75U, for which the self-cleavage came to 0.32.

Turning to G10U G33A, the self-cleavage came out at 0.23.

As to A13U G63U, the self-cleavage was found to be 1.09.

Turning to A2G A28G, the self-cleavage was 0.4.

In the case of C40A A75U, the self-cleavage stood at 0.43.

As for C32G A57G, the self-cleavage is 0.1.

Take G52C A56G: the self-cleavage came to 1.12.

As to C23G U54C, the self-cleavage came to 0.28.

Take U41A U48C: the self-cleavage was determined as 0.23.

As for G9U U67A, the self-cleavage amounted to 0.11.
